Measurements from patent publication US20080138339A1 (DONGGNAN HAOFA BIOTECHNOLOGY DEVELOPMENTAL, published 2008).

Biological target: T1, OC183B2 (antigens associated with ovarian carcinoma) (human)
T1 construct: It is treated here as a protein antigen; also called HRP-OC183B2
Experiment: direct ELISA; plate coated with bispecific antibody, HRP-OC183B2 added, read at 492 nm
Protocol: The antigen-binding activity of anti-ovarian carcinoma scFv in bispecific antibody was assayed by direct ELISA. ELISA plate was coated with bispecific antibody at 4° C. overnight. Wells coated with anti-ovarian monoclonal antibody were set as positive control. Plate was washed 3 times with PBST (PBS-0.05% Tween 20) for 5 min. HRP-OC183B2 diluted in 3% goat serum was added and incubate at 37° C. for 1 h. After washing plate 3 times with PBST, the substrate of HRP was added and incubated for 20 min at room temperature in the dark. 2M H2SO4 was added to stop the reaction. All the values of OD492 of bispecific antibody were 2.5 times higher than those of negative control and changed with gradient among the different dilution of bispecific antibody.

B1: anti-human ovarian carcinoma x anti-human CD3 bispecific antibody (bispecific antibody, not shown: a dimerising Fc or GST)
chain: EVQLQESGPEVKKPGETVRISCKASGYTFTTAGMQWVQKMPGKGLKWLGWINTNSEVPKYAEDFRGRFAFSLETSASTAYLQISNLKNEDTATFFCARSFTWGTMDYWGQGTTVTVSSGGGGSGGGGSGGGGSDVVMTQTPLSLPVSLGDQASISCRSSQTLVHSIGNTYLHWYLQKPGQSPKLLIYKVSNRFSGVPDRFSGSGSGTDFTLKISRVEAEDLGVYFCSQSTHVPYTFGGGTKLELKEIVLTQSPATLSLSPGERATLSCSASSSVSYMNWYQQKPGQAPRRWIYDTSKLASGIPARFSGSGSGTDFTLTISSLEPEDFATYYCQQWSSNPFTFGGGTKVEIKRGGGGSGGGGSGGGGSQVQLVQSGAEVRKPGASVRVSCKASGYTFTRYTMHWVRQAPGHGLEWIGYINPSRGYTNYNQKFKDRVTMTTDKSFSTAIMDLRSLRSDDSAVYYCARYYDDHYCLDYWGQGTTVTVSSHHHHHH
notes: Single polypeptide expressed from pAMAB in E. coli G1724, about 52 kDa; Order: anti-ovarian scFv, interlinker, anti-CD3 reshaped scFv, 6 His; also called BsAb; ScBsAb
OD492 relative to negative control: 2.5 times
